The results in this text go back to publication doi:10.1101/2024.02.23.581811 (bioRxiv, 2024).

Where a chain is given by its changes, count along the chain named.

This assay concerns the target β2-adrenergic receptor (Homo sapiens (Human)., UniProt P07550). The assay is described as follows: linear dichroism.

B1: NB80-eGFP-HRas (VHH)
VHH: QVQLQESGGGLVQAGGSLRLSCAASGSIFSINTMGWYRQAPGKQRELVAAIHSGGSTNYANSVKGRFTISRDNAANTVYLQMNSLKPEDTAVYYCNVKDYGAVLYEYDYWGQGTQVTVSS
On to B1, for which the binding result is “binds”.

B2: NB80Lite-eGFP-HRas (VHH)
VHH: B1 VHH with H52S, S56G, T57S, N58A
On to B2, for which the binding result is “binds”.
